The source of these data is patent US20140087995A1 (published 2014).

Numbered stars: 1 amine (or outer) side, 2 acyl side, 3 side chain; on linkers, the order of the positions; unused ones are H or OH. Bridge positions count the residues as written; N and C are the ends. Side chains are listed from the residue outwards. Ends that are not written are not given here. * marks the point of attachment. C20 diacid = O=C(O)CCCCCCCCCCCCCCCCCCC(=O)*; γGlu = O=C(O)[C@H](CCC(=O)[*:2])N[*:1]; AEEA = NCCOCCOCC(=O)O

In assay [1] the target is T1, human calcitonin receptor (human, UniProt P30988 25-474).
T1 construct: whole, on cells; Used as membranes prepared from the transfected cells; also called hCTR; hCT
T1 sequence (looked up): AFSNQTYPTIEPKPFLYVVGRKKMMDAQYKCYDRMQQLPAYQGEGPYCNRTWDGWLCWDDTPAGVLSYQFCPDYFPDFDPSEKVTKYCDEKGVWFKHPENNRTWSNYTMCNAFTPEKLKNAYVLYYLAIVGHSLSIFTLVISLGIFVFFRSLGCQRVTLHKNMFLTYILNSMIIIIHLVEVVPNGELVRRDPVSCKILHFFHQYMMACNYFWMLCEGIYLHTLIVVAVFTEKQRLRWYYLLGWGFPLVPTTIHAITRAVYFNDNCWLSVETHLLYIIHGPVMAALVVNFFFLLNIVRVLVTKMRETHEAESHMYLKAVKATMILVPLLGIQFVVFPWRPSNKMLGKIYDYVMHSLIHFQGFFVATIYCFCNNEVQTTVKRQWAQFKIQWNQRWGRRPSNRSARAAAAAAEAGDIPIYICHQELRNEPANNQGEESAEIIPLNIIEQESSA
In words: ratio of binding IC50 at human calcitonin receptor to IC50 at human amylin receptor (reference). A digest of the protocol:
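Competition binding by SPA uses membrane preparations (35 ng/μL final) in pH 7.4 Hepes buffer with 1 mM CaCl2 and 5 mM MgCl₂. Incubation lasts 120 min at 25° C, and IC₅₀ comes from one-site fitting.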

Assay [2] addresses T2, rat calcitonin receptor (rat, UniProt P32214 25-516).
T2 construct: whole, on cells; Used as membranes prepared from the transfected cells; also called rCTR; rCT
T2 sequence (looked up): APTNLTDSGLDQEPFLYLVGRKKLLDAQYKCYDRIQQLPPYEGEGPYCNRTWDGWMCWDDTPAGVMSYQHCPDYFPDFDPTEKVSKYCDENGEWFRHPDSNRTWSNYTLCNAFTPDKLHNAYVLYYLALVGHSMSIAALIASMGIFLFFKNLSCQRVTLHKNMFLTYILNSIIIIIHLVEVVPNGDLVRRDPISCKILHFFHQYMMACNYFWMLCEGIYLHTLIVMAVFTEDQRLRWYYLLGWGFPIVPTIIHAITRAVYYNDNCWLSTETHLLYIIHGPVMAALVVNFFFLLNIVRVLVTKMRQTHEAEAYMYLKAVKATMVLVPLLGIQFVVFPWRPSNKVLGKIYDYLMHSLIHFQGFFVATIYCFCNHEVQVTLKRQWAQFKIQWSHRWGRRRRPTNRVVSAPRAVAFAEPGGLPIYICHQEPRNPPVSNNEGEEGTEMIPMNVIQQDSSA
Put plainly: SPA competition with 125I-calcitonin, membranes with rat calcitonin receptor (Assay VIII).

Assay [3] deals with T2, rat calcitonin receptor. In words: ratio of binding IC50 at rat calcitonin receptor to IC50 at rat amylin receptor (reference).
The target of assay [4] is T3, rat amylin receptor (rat calcitonin receptor with rat RAMP 3) (rat, UniProt P32214 25-516; Q9JJ73 23-147).
T3 construct: whole, on cells; Used as membranes prepared from the transfected cells; also called rAmylin-R; rAmylin
T3 sequence (looked up) 1: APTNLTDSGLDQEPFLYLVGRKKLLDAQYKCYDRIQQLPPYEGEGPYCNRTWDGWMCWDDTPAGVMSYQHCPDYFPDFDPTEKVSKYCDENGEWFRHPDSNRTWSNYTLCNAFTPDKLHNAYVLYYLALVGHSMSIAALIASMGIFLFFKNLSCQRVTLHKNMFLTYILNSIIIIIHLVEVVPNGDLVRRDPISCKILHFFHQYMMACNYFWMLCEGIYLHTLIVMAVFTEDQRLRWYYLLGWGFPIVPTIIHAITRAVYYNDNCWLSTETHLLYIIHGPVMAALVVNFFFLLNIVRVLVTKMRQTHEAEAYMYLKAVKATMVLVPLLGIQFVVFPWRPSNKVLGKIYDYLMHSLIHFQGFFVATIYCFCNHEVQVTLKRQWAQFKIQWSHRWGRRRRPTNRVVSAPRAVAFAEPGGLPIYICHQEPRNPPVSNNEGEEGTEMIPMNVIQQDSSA
T3 sequence (looked up) 2: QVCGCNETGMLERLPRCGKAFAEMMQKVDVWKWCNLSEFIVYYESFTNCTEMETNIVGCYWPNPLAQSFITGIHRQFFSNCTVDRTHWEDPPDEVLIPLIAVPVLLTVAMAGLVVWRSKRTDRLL
In words: SPA competition with 125I-rat amylin, membranes with rat calcitonin receptor + rat RAMP3 (Assay VI).

B1: N^ε1-[2-[2-[2-[[2-[2-[2-[[(4S)-4-carboxy-4-(19-carboxynonadecanoylamino)butanoyl]amino]ethoxy]ethoxy]acetyl]amino]ethoxy]ethoxy]acetyl]-[Arg17,Pro21,Pro27,Pro31 … (peptide)
peptide: K([AEEA-AEEA-γGlu-C20 diacid])CNTATCATQRLANFLRHSSPNFGAIPSSTPVGSNTY-NH2
modifications: disulfide 2-7; N-terminus assumed
SMILES: CC[C@H](C)[C@H](NC(=O)[C@H](C)NC(=O)CNC(=O)[C@H](Cc1ccccc1)NC(=O)[C@H](CC(N)=O)NC(=O)[C@@H]1CCCN1C(=O)[C@H](CO)NC(=O)[C@H](CO)NC(=O)[C@H](Cc1c[nH]cn1)NC(=O)[C@H](CCCNC(=N)N)NC(=O)[C@H](CC(C)C)NC(=O)[C@H](Cc1ccccc1)NC(=O)[C@H](CC(N)=O)NC(=O)[C@H](C)NC(=O)[C@H](CC(C)C)NC(=O)[C@H](CCCNC(=N)N)NC(=O)[C@H](CCC(N)=O)NC(=O)[C@@H](NC(=O)[C@H](C)NC(=O)[C@@H]1CSSC[C@H](NC(=O)[C@@H](N)CCCCNC(=O)COCCOCCNC(=O)COCCOCCNC(=O)CC[C@H](NC(=O)CCCCCCCCCCCCCCCCCCC(=O)O)C(=O)O)C(=O)N[C@@H](CC(N)=O)C(=O)N[C@@H]([C@@H](C)O)C(=O)N[C@@H](C)C(=O)N[C@@H]([C@@H](C)O)C(=O)N1)[C@@H](C)O)C(=O)N1CCC[C@H]1C(=O)N[C@@H](CO)C(=O)N[C@@H](CO)C(=O)N[C@H](C(=O)N1CCC[C@H]1C(=O)N[C@H](C(=O)NCC(=O)N[C@@H](CO)C(=O)N[C@@H](CC(N)=O)C(=O)N[C@H](C(=O)N[C@@H](Cc1ccc(O)cc1)C(N)=O)[C@@H](C)O)C(C)C)[C@@H](C)O
notes: Analogue of human amylin; disulfide and C-terminal amide as told for h-amylin; also called compound 96
The IC50 is the concentration at which inhibition is half-maximal. B1: the “Ratio hCT/hAmylin binding” value in assay [1] is 79.6. For the same molecule, the concentration for half-maximal inhibition (IC50) with rat calcitonin receptor [2] was found to be 62.2 nM; in assay [4] it was 0.529 nM. Also, the “Ratio rCT/rAmylin binding” value with rat calcitonin receptor [3] is 118.

B2: N^ε1-[2-[2-[2-[[2-[2-[2-[[(4S)-4-carboxy-4-(19-carboxynonadecanoylamino)butanoyl]amino]ethoxy]ethoxy]acetyl]amino]ethoxy]ethoxy]acetyl]-[Arg17,Pro21,Pro27,Pro34 … (peptide)
peptide: K([AEEA-AEEA-γGlu-C20 diacid])CNTATCATQRLANFLRHSSPNFGAIPSSTNVGPNTY-NH2
modifications: disulfide 2-7; N-terminus assumed
SMILES: CC[C@H](C)[C@H](NC(=O)[C@H](C)NC(=O)CNC(=O)[C@H](Cc1ccccc1)NC(=O)[C@H](CC(N)=O)NC(=O)[C@@H]1CCCN1C(=O)[C@H](CO)NC(=O)[C@H](CO)NC(=O)[C@H](Cc1c[nH]cn1)NC(=O)[C@H](CCCNC(=N)N)NC(=O)[C@H](CC(C)C)NC(=O)[C@H](Cc1ccccc1)NC(=O)[C@H](CC(N)=O)NC(=O)[C@H](C)NC(=O)[C@H](CC(C)C)NC(=O)[C@H](CCCNC(=N)N)NC(=O)[C@H](CCC(N)=O)NC(=O)[C@@H](NC(=O)[C@H](C)NC(=O)[C@@H]1CSSC[C@H](NC(=O)[C@@H](N)CCCCNC(=O)COCCOCCNC(=O)COCCOCCNC(=O)CC[C@H](NC(=O)CCCCCCCCCCCCCCCCCCC(=O)O)C(=O)O)C(=O)N[C@@H](CC(N)=O)C(=O)N[C@@H]([C@@H](C)O)C(=O)N[C@@H](C)C(=O)N[C@@H]([C@@H](C)O)C(=O)N1)[C@@H](C)O)C(=O)N1CCC[C@H]1C(=O)N[C@@H](CO)C(=O)N[C@@H](CO)C(=O)N[C@H](C(=O)N[C@@H](CC(N)=O)C(=O)N[C@H](C(=O)NCC(=O)N1CCC[C@H]1C(=O)N[C@@H](CC(N)=O)C(=O)N[C@H](C(=O)N[C@@H](Cc1ccc(O)cc1)C(N)=O)[C@@H](C)O)C(C)C)[C@@H](C)O
notes: Analogue of human amylin; disulfide and C-terminal amide as told for h-amylin; also called compound 98
As to B2, in assay [1], the “Ratio hCT/hAmylin binding” value came to 74.1. Further, the figures for the half-maximal inhibitory concentration (IC50) (with rat calcitonin receptor [2]; in assay [4]) were 24.1 nM and 0.137 nM, respectively. For the same molecule, the “Ratio rCT/rAmylin binding” value in the assay with rat calcitonin receptor [3] came to 176.
